According to patent publication US20260167679A1, “FUSION PROTEIN TARGETING MITOCHONDRIA, METHOD OF MAKING AND USE THEREOF” (UNIVERSITY OF ROCHESTER, priority 2020, published 2026):

Legend:
[1] = test system: isolated C. elegans mitochondria; test: Mitochondrial matrix pH measurement (BCECF-AM); assay type: biochemical, Caenorhabditis elegans; settings: mtON activation by light
Description: The ratiometric pH indicator BCECF-AM (Thermo Fisher, B1170) was used to measure pH changes in the mitochondrial matrix in response to succinate respiration or mtON activation. Isolated mitochondria (˜200 μl per isolation) were incubated at room temperature with 50 μM BCECF-AM for 10 min with periodic mixing. Mitochondria were then pelleted at 7,000 g for 5 min at 4° C., and isolation media replaced and pelleted again to remove extramitochondrial BCECF-AM. Isolated mitochondrial suspensions were then assayed under the same conditions as in the mitochondrial membrane potential measurements described above. Ratiometric fluorescent signal was measured by Cary Eclipse Fluorescence Spectrophotometer (Agilent Technologies) using 440 and 490 nm excitation wavelengths and 545 nm emission. The fluorescence intensity ratio at 545 nm of 490/440 nm excitation wavelengths was used to represent pH changes in the mitochondrial matrix. Light treatment was 0.16 J/cm^2 (XCite LED, 0.02 mW/mm^2), and 2 μM FCCP was used at the end of each trace to establish baseline signal.

[2] = test system: isolated C. elegans mitochondria; test: ATP measurement in isolated mitochondria (luciferase); assay type: biochemical, Caenorhabditis elegans; settings: isolated mitochondria supplied with ADP, mtON activation
Description: Relative ATP levels were determined in isolated mitochondria given a known amount of ADP to test the ability of mtON to drive ATP synthesis. A luciferase bioluminescence kit was used according to the manufacturer's instructions (Invitrogen™ Molecular Probes™, A22066). Mitochondria were stirred in MRB at 0.5 mg/ml with 1 mg/ml fat-free BSA, 600 μM ADP, and 2 μM rotenone. 5 mM succinate was used for a control for maximum ATP level, and 0.001 mg/ml oligomycin A was used as a zero ATP synthesis control. Mitochondrial suspensions were immediately frozen with liquid nitrogen after 1, 5, or 10 min light exposure (XCite LED, 0.02 mW/mm^2). Samples were then thawed on ice, centrifuged at 14,800 g, and supernatant was collected and run at 1:100 dilution in MRB in the luminescence assay. Oligomycin A control values were subtracted from experimental reads, and data were then normalized to luminescent signal from succinate control samples (complete ADP conversion confirmed by monitoring 02 consumption rate transitions).

C. elegans [3] = test: Locomotion assay (body bends); assay type: in vivo, Caenorhabditis elegans; settings: mtON activation
Description: […] One body bend was scored as a deflection of direction of motion of the posterior pharyngeal bulb. For AMPK activation, animals were placed on plates containing 1 mM AICAR 4 h before counting body bends. AICAR was dissolved in M9 buffer, added directly onto OP50 seeded plates, and allowed to dry. Illumination was continuous through measurements (MVX, 0.265 mW/mm^2).

C. elegans [4] = test: In vivo mitochondrial membrane potential (TMRE) in aged animals; design: species or system Caenorhabditis elegans
Description: FIG. 8 is a composite of drawings showing that mtON restores lost membrane potential and increases lifespan. […] One-way ANOVA with Tukey's post hoc test for multiple comparisons, *p<0.05. Data are means±standard error of the mean. Panel B) mtON activation throughout adult life extends lifespan (n=?). […] Log rank Mantel Cox test for survival comparison, p=0.018.
Panel A) Representative images of day 4 adult animals exposed to 100 nM TMRE for 24 hours. Pharynx region of interest (ROI) is outlined in dotted white lines. All animals were expressing mtON through single-copy CRISPR/Cas9 insertion to the genome. Panel B) Quantification of TMRE fluorescence in mtON-expressing day 4 adult animals exposed to 100 nM TMRE for 24 hours. Whole-body fluorescence as well as pharynx ROIs were quantified. Control represents animals exposed to light but without ATR supplementation. Statistics are student's two tailed unpaired t tests. * p<0.001.
Scale bar, 250 μm. c, Quantification of relative TMRE fluorescence. One-way analysis of variance (ANOVA) with Tukey's multiple comparisons test, day 1 versus day 4, P=0.0001, day 1 versus day 10, P=0.0002, n=44, 18 and 30. Data are median±quartiles (dotted lines). d, Pharynx TMRE fluorescence normalized to mitochondrial mass in day 4 worms. […]

CD8+ T cells = test: CD8+ T cell migration on ICAM-1+CXCL12; assay type: cell-based, mouse
Description: The velocity (A), displacement (B), track length (C), meandering index (D), and percent migrating cells (E) of Mock (or GFP) and mtOn expressing Day 4 CD8+ T cells migrating on ICAM-1+CXCL12. The percentage of migrating cells was calculated as the number of cells migrating 5-20 μm/min divided by the total number of cells in the field of view during the 20-minute movie. All movies received 500 nm illumination and were analyzed with Volocity software. All data shown as mean±SEM and analyzed by a two-tailed unpaired t-test with Welch's correction (A-D: includes four independent experiments, Mock: 271 cells, mtOn: 312 cells; E: n=4 movies on the same day). ns, not significant.
After confirming mtON is expressed correctly, there followed additional functional experiments, specifically looking at cell migration in CD8+ T cells expressing mtON (PA-OxPhos). The migration conditions were the same as in previously described experiments, except we now used the Texas Red filter (˜500 nm) on an epifluorescent microscope to activate mtON while CD8+ T cells are migrating on ICAM-1+CXCL12. CD8+ T cells were sorted based on GFP expression and the mock negative control cells were GFP negative. Both mock and mtON expressing CD8+ T cells were treated identically.

Drosophila melanogaster = test: Drosophila lifespan; assay type: in vivo; settings: activation of mtON (ATR, white light)
Source text: (C) White light increases the lifespan of mtON+ATR (red) Drosophila compared to vehicle (ethanol, blue) Drosophila.

B1: mtON: fusion of the 187 N-terminal amino acids of mouse IMMT1 to the light-activated proton pump (Mac) from Leptosphaeria maculans (protein)
chain: MLRACQLSGVTVAAQSCLCGKFVLRPLRPCRRYSTSSSSGLTAGKIAGAGLLFVGGGIGGTILYAKWDSHFRESVEKTIPYSDKLFGMVLGSAPYTVPLPKKPVQSGPLKISSVSEVMKDSKLPVAQSQKTKGDTPASAASTGAAQIISAAGDTLSVPAPAVQHEDTIKTECPNTNEGKSTSETTEEPAGLIVDQFEEVLMKTSQLFPLPTATQSAQPTHVAPVPTVLPDTPIYETVGDSGSKTLWVVFVLMLIASAAFTALSWKIPVNRRLYHVITTIITLTAALSYFAMATGHGVALNKIVIRTQHDHVPDTYETVYRQVYYARYIDWAITTPLLLLDLGLLAGMSGAHIFMAIVADLIMVLTGLFAAFGSEGTPQKWGWYTIACIAYIFVVWHLVLNGGANARVKGEKLRSFFVAIGAYTLILWTAYPIVWGLADGARKIGVDGEIIAYAVLDVLAKGVFGAWLLVTHANLRESDVELNGFWANGLNREGAIRIGEDDGAR
modifications: Synthetic Complete mtON fusion protein sequence
In the case of B1, the “mitochondrial matrix pH (BCECF-AM ratio)” value [1] is reported as “matrix pH increased”, the ATP levels [2] is reported as “increased ATP levels” and the locomotion off food (C. elegans [3]; animals off food) is reported as “suppressing their movement”. For the same molecule, the “locomotion speed (body bends per minute)” value (C. elegans [3]; complex I mutant background (gas-1), in presence of food) was “rescued the decreased locomotion”, the “whole-animal measures of PMF” value (C. elegans [4]; mtON activation for 4 days into adulthood vs age-matched controls) was “significantly increased” and the “age-related decline of Δψm” value (C. elegans [4]; mtON activation, two different genetic backgrounds) was “reversed that decline”. For the same molecule, the “overall percentage of migrating CD8+ T cells” value (CD8+ T cells; vs cells expressing GFP) was “large increase”, the cell displacement (CD8+ T cells; ~500 nm illumination, vs mock) was “increase” and the cell velocity (CD8+ T cells; ~500 nm illumination, vs mock) was “increase”. For the same molecule, the meandering index (CD8+ T cells; ~500 nm illumination, vs mock) was “increase” and the lifespan (Drosophila melanogaster) was “extends Drosophila lifespan”.
